Assay results as given in paper PMC12554172, “Systematic analysis of the RGS2 degron reveals characteristics of substrate recognition by the F-box protein FBXO44” (The Journal of Biological Chemistry, 2025).

Target: RGS2^5–16 peptide (RGS2 degron, Met^5–Met^16)
Assay: SPR; Biacore X100; RGS2^5–16 peptide amine-coupled to a CM5 chip (2498 RU), blank reference cell; FBXO44^FBA as analyte, 0.29 to 75 μM, contact time 60 s, regeneration 50 mM NaOH; RU at equilibrium, nonlinear fit of saturation binding; SEC/SPR buffer 20 mM Tris–HCl pH 7.2, 200 mM NaCl

Kd: 2100 nM
B1: FLAG-tagged FBXO44 FBA domain (FBXO44^FBA) (domain or fragment)
chain: FYFLRSLHRNLLHNPCAEEGFEFWSLDVNGGDEWKVEDLSRDQRKEFPNDQVKKYFVTSYYTCLKSQVVDLKAEGYWEELMDTTRPDIEVKDWFAARPDCGSKYQLCVQLLSSAHAPLGTFQPDPATIQQKSDAKWREVSHTFSNYPPGVRYIWFQHGGVDTHYWAGWYGPRVTNSSITIGP
